First the molecules themselves.
B1: glmS ribozyme (parent)
chain: AUAAAAGCGCCAGAACUACAGAAAUGUAGUUGACGAGGAGGAGGUUUAUCGAAUUUUCGGCGGAUGCCUCCAAA

± gives the standard error. Fewer inactive variants are shown than the library holds.

Variants of B1 are the subject of the first data set. As to the kind of experiment: self-cleavage kobs at 640 uM GlcN6P; higher = faster cleavage; RNA array. Particulars: with glucosamine-6-phosphate. An outline of the steps: (§1)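 On sequenced MiSeq chips, barcoded ribozyme variants were made in situ by E. coli RNA polymerase and followed at 37 °C through a hybridised Cy3 probe. Glucosamine-6-phosphate was flowed in at 40 μM to 10 mM in HEPES/KCl/Mg(OAc)2 buffer. Exponential fits to normalised per-tile medians gave kobs, and weighted Michaelis–Menten fits gave kcat and KM.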
As for AUAAAAGCGACAGAACUACAGAAAUGUAGUUGACGAGGAGGAGGUUUAUCGAAUUUUCGGCGGAUGGCUACAAA [C10A C67G C70A], the “self-cleavage kobs at 640 uM GlcN6P” value turned out to be 0.000293 ± 9.2e-05 s⁻¹.

As for AUAAAAGCGCAAGCACUACAGAAAUGUAGUUGACGAGGAGGAGAUUUAUCGAAUUUUCGGCGGAUUCCUCCAAA [C11A A14C G44A G66U], the “self-cleavage kobs at 640 uM GlcN6P” value is under 1e-05 s⁻¹.

For the variant AUAAAAGCGCCAGAACUACAGAAAUGUAGUUGACGAGGAGGAGGUUUAUCGAAUGUUCGGCGGAUCCCUUCAAA [U55G G66C C70U], the “self-cleavage kobs at 640 uM GlcN6P” value amounted to 0.000456 ± 0.0001 s⁻¹.

For AUAAAAGCGCCAAAACUACAGAAAUGUACUUGACGAGGAGGAGGUUUAUCGAAUUUUCGGCGGAUUCCUCCAAA [G13A G29C G66U], the “self-cleavage kobs at 640 uM GlcN6P” value is under 1e-05 s⁻¹.

For the variant AUAAAAGCGCCAGAACUACAGAAAUGUAGUUGACGCGGAGUAGGUUUAUCGAAUUUUCGGCGGCUGCCUCCAAA [A36C G41U A64C], the “self-cleavage kobs at 640 uM GlcN6P” value was under 1e-05 s⁻¹.

Turning to AUAAAAGCGCAAGAGCUACAGAAAUGUAAUUGACGAGGAGGAGGUUUAUCGAAUUUUCGGCGGAUGCCUCCAAA [C11A A15G G29A], the “self-cleavage kobs at 640 uM GlcN6P” value is under 1e-05 s⁻¹.

Take AUAAAAGCGCCAGAAUUACAGAAAUGUAGUUCACAAGGAGGAGGUUUAUCGAAUUUUCGGCGGAUGCAUCCAAA [C16U G32C G35A C68A]: the “self-cleavage kobs at 640 uM GlcN6P” value is under 1e-05 s⁻¹.

With AUAAAAGCGCCAGAACUACAGAAAUGUAGUUGACGAGGAGAAGGUUUAUCUAAUUUUCGGCGGAUGCUUGCAAA [G41A G51U C68U C70G], the “self-cleavage kobs at 640 uM GlcN6P” value is under 1e-05 s⁻¹.

As for AUAAAAGCGCCAGACCUACAGAAAUGUAGUUGACGACGAGGAGGUUUAUCGAAUUUUCGGCGGAUGCCUCCAAA [A15C G37C], the “self-cleavage kobs at 640 uM GlcN6P” value was under 1e-05 s⁻¹.

Turning to AUAAAAGCGCCAGAACUACAGAAAUGUACUUGGCGAGGAAGAGGUUUAUCGAAUUCUCGGCGGAUGCCUCCAAA [G29C A33G G40A U56C], the “self-cleavage kobs at 640 uM GlcN6P” value is under 1e-05 s⁻¹.

Regarding AUAAAAGCGCUAGAACUACAGAAAUGUAGUUGACGAGGAGCAGGUUUAUCGAAGUUUCCGCGGAUGCCUCCAAA [C11U G41C U54G G59C], the “self-cleavage kobs at 640 uM GlcN6P” value was under 1e-05 s⁻¹.

As for AUAAAAGCGCCAGAACUACAGAAAUGUAGUUGACGAGGAGGAACUUUAUCGAAUUUUCGGCGGAUGACUACAAA [G43A G44C C67A C70A], the “self-cleavage kobs at 640 uM GlcN6P” value was under 1e-05 s⁻¹.

Turning to AUAAAAGCGCCAGAACUACAGAAAUGUAGUUGGCGAGGAGGAGGUUUAUCGGAUUUUCGGCGGAGGCCUCCAAA [A33G A52G U65G], the “self-cleavage kobs at 640 uM GlcN6P” value is under 1e-05 s⁻¹.

Consider AUAAAAGCGCCAGAACUACAGAAAUGUAGUUGACGAGGAGGAGGUUGAUCGAAUUUGCGGGGGAUGUCUCCAAA [U47G U57G C61G C67U], for which the “self-cleavage kobs at 640 uM GlcN6P” value is 0.000132 ± 5.3e-05 s⁻¹.

As to AUAAAAGCGCCAGAACGACAGAAAUGUAGUUGACGAGGAGGAGGUUUAUCGAAUUUUCGGCUGAUGCCUCCAAA [U17G G62U], the “self-cleavage kobs at 640 uM GlcN6P” value is under 1e-05 s⁻¹.

On to AUAAAAGCGCUAGAAAUACAGAAAUGUAGAUCACGAGGAGGAGGUUUAUCGAAUUUUCGGCGGAUGCCGCCAAA [C11U C16A U30A G32C U69G], for which the “self-cleavage kobs at 640 uM GlcN6P” value came to 0.000926 ± 0.00019 s⁻¹.

AUAAAAGCGACAGAAAUACAGAAAUGUAGUUGACGAGGAGGAGGUUUAUCGAAUUUUCGGCGGAUGCAUCCAAA [C10A C16A C68A]: the “self-cleavage kobs at 640 uM GlcN6P” value was determined as 0.000126 ± 4.7e-05 s⁻¹.

AUAAAAGCGCCAGAACUACAGAAAUGUAGUUGACUAGGAGAAGGUUUAUCGAAUUUUCGGCGGGUGCCUCCAAA [G35U G41A A64G]: the “self-cleavage kobs at 640 uM GlcN6P” value was under 1e-05 s⁻¹.

Take AUAAAAGCGCCAGAACUACAGAAAUGUAGUUGACGUGAAGGAGGUUUAUCGUAUUUUCGGCGGAUGGCUCCAAA [A36U G38A A52U C67G]: the “self-cleavage kobs at 640 uM GlcN6P” value was determined as 4.67e-05 ± 1.8e-05 s⁻¹.

For AUAAAAGCGCCAGAACUACAGAAAUGUAGUUGACGAGGAGGGGGUUUAUCUAAUUUUCGGCGGAUGCCUUCAAA [A42G G51U C70U], the “self-cleavage kobs at 640 uM GlcN6P” value is under 1e-05 s⁻¹.

AUAAAAGCGCCAGAACUACAGAAAUGUAGUUUACGUGGAGGAGGUUUAUCGAAUUUUCGGCUGAUGCCUCCAAA [G32U A36U G62U]: the “self-cleavage kobs at 640 uM GlcN6P” value is under 1e-05 s⁻¹.

Regarding AUAAAAGCGACAGAACUACAGAAAUGUAGUUGACGAGGAGGAGGUUUAUCGAAUUUUCGGCGAAUGCCACUAAA [C10A G63A U69A C71U], the “self-cleavage kobs at 640 uM GlcN6P” value was determined as 0.000215 ± 6.3e-05 s⁻¹.

As for AUAAAAGCGCCAGAACUACAGAAAUGUAGUUGACGAGCAGGAGGUUUAUCGAAUUGUUGGCGGAUGCCUCCAAA [G38C U56G C58U], the “self-cleavage kobs at 640 uM GlcN6P” value is under 1e-05 s⁻¹.

As to AUAAAAGCGCCAGAACUACAGAAAUGUAGUUGACGAGGAGGAGGUUUAUCGAAUUUGCGGCGGAUGGCUCCAAA [U57G C67G], the “self-cleavage kobs at 640 uM GlcN6P” value is 0.000478 ± 0.00018 s⁻¹.

Consider AUAAAAGCGCCUUAACUACAGAAAUGUAGUUUACGAGGAGGAGGUUUAUCGAAUUUUCGGCGGGUGCCUCCAAA [A12U G13U G32U A64G], for which the “self-cleavage kobs at 640 uM GlcN6P” value is under 1e-05 s⁻¹.

Consider AUAAACGCGCCAGAACUACAGAAAUGUAGUUGACGAGGAGAAGGUUUAUCGAAUUUUCGGCGGAUGCACCCAAA [A6C G41A C68A U69C], for which the “self-cleavage kobs at 640 uM GlcN6P” value was under 1e-05 s⁻¹.

A further data set covers variants of B1. As to the kind of experiment: self-cleavage kobs at 2500 uM GlcN6P; higher = faster cleavage; RNA array. The settings on record: with glucosamine-6-phosphate. In a few lines: as §1
Consider AUAAAAGCGCAAGCACUACAGAAAUGUAGUUGACGAGGAGGAGAUUUAUCGAAUUUUCGGCGGAUUCCUCCAAA [C11A A14C G44A G66U], for which the “self-cleavage kobs at 2500 uM GlcN6P” value was under 1e-05 s⁻¹.

On to AUAAAAGCGCCAGAACUACAGAAAUGUAGUUGACGAGGAGGAGGUUUAUCGAAUGUUCGGCGGAUCCCUUCAAA [U55G G66C C70U], for which the “self-cleavage kobs at 2500 uM GlcN6P” value worked out at 0.000343 ± 8.7e-05 s⁻¹.

For AUAAAAGCGCCAGAACUACAGAAAUGUAGUUGACGCGGAGUAGGUUUAUCGAAUUUUCGGCGGCUGCCUCCAAA [A36C G41U A64C], the “self-cleavage kobs at 2500 uM GlcN6P” value is under 1e-05 s⁻¹.

Consider AUAAAAGCGCCAGAAUUACAGAAAUGUAGUUCACAAGGAGGAGGUUUAUCGAAUUUUCGGCGGAUGCAUCCAAA [C16U G32C G35A C68A], for which the “self-cleavage kobs at 2500 uM GlcN6P” value was under 1e-05 s⁻¹.

As for AUAAAAGCGCCAGAACUACAGAAAUGUAGUUGACGAGGAGAAGGUUUAUCUAAUUUUCGGCGGAUGCUUGCAAA [G41A G51U C68U C70G], the “self-cleavage kobs at 2500 uM GlcN6P” value was under 1e-05 s⁻¹.

On to AUAAAAGCGCCAGAACUACAGAAAUGUAGUUGACGAGGAGGAACUUUAUCGAAUUUUCGGCGGAUGACUACAAA [G43A G44C C67A C70A], for which the “self-cleavage kobs at 2500 uM GlcN6P” value is under 1e-05 s⁻¹.

Regarding AUAAAAGCGCCAGAACUACAGAAAUGUAGUUGGCGAGGAGGAGGUUUAUCGGAUUUUCGGCGGAGGCCUCCAAA [A33G A52G U65G], the “self-cleavage kobs at 2500 uM GlcN6P” value was under 1e-05 s⁻¹.

Take AUAAAAGCGCCAGAACUACAGAAAUGUAGUUGACGAGGAGGAGGUUGAUCGAAUUUGCGGGGGAUGUCUCCAAA [U47G U57G C61G C67U]: the “self-cleavage kobs at 2500 uM GlcN6P” value stood at 0.000254 ± 6.6e-05 s⁻¹.

On to AUAAAAGCGCCAGAACUACAGAAAUGUAGUUGACUAGGAGAAGGUUUAUCGAAUUUUCGGCGGGUGCCUCCAAA [G35U G41A A64G], for which the “self-cleavage kobs at 2500 uM GlcN6P” value was under 1e-05 s⁻¹.

For AUAAAAGCGCCAGAACUACAGAAAUGUAGUUGACGUGAAGGAGGUUUAUCGUAUUUUCGGCGGAUGGCUCCAAA [A36U G38A A52U C67G], the “self-cleavage kobs at 2500 uM GlcN6P” value was 4.17e-05 ± 2.1e-05 s⁻¹.

Variants of B1 are the subject of the next data set. As to the kind of experiment: self-cleavage kobs at 10000 uM GlcN6P; higher = faster cleavage; RNA array. The settings on record: with glucosamine-6-phosphate. In a few lines:
as §1
Regarding AUAAAAGCGCCAGAACUACAGAAAUGUAGUUGACGAGGAGGAGGUUUAUCGAAUUUGCGGCGGAUGGCUCCAAA [U57G C67G], the “self-cleavage kobs at 10000 uM GlcN6P” value came to 2.33e-05 ± 1e-05 s⁻¹.

For AUAAACGCGCCAGAACUACAGAAAUGUAGUUGACGAGGAGAAGGUUUAUCGAAUUUUCGGCGGAUGCACCCAAA [A6C G41A C68A U69C], the “self-cleavage kobs at 10000 uM GlcN6P” value was under 1e-05 s⁻¹.

Values taken from the supplement of paper PMC7125110.
